Experimental data reported in PMC12328794 (2025).

Target: cytosolic domain of human Fis1 (Fis1_ΔTM, residues 1−123) (human, UniProt Q9Y3D6 1-123)
Assay: SPR

Kd: 156 µM
B1: Bap31_CC2 D224K (domain or fragment)
chain: LDVGNAEVKLEEENRSLKADLQKLKDELASTKQKLEKAENQVLAMRKQSEGLTKEYKRLLEEHAKLQAAVDGPMDKKEE
